Reference: article PMC5362033, “The Vitamin B12-Dependent Photoreceptor AerR Relieves Photosystem Gene Repression by Extending the Interaction of CrtJ with Photosystem Promoters” (mBio, 2017)
Blank lines part the entries; values can stand above or below the molecule they belong to.

B2: CrtJ (natural protein, Rhodobacter capsulatus, UniProt P26167 1-469, looked up)
chain: MTSDGSFLMRREALQRVSPDLLADIVTSACDIALVVSPGRVVESVMVNPQFGSAERFAAWQGARLSQLFSPESAQKLENRLADGPEPGRSLQLELTHAADAFTLPVRYTITRSGEDGTLLLIGRDMQPLAEVQQQLVKAQLALERDYEAQREIETRYRVLLEAHPAPLLIVSMSTGRIADLNLAAAAMIGATRAELIDAPVGQELDGRRRGEFLENLAKIAGSDPLGAVELTIRRSRRKVTVTATLFRAAGDRLLLCRLGEAEARRTRVDDTVELSERLFLKGIDAMVFLDADGTIRAANDAFLYLTDAGSAALVQGRSFADFLSRGAVDLNVLLDNVKRIGHLRHYVTRLNTDFSGQVTVELSATLFHDRATPTIALVIRDSNLADATRIMPGMASNEGLRNVMQMVGYATLRDIVSETTEIIEKMCIETALELTGNNRVAAAELLSLSRQSLYVKLRKFGLLSKDAE
notes: CrtJ, aerobic repressor of photosystem genes, Rhodobacter capsulatus (strain SB1003 is the wild-type parent); calculated molecular mass of the dimer 101.0 kDa; also called CrtJ2; CrtJ dimer; source: E. coli BL21(DE3) bearing pSUMO-CrtJ, overexpressed as SUMO-tagged protein, purified according to previous studies

Tests used:
[1] = tested on: CrtJ;AerR (Rhodobacter capsulatus;Rhodobacter capsulatus); test: EMSA; details: EMSA with 10 nM bchC DNA, oxidizing (O2) or reducing (10 mM DTT), Hill fit; buffer, salt, pH and temperature not in the material (reported previously, ref. 20)
[2] = biological target: B2; test: SEC-MALS; size exclusion chromatography coupled with multiangle light scattering (Wyatt), analysed with ASTRA 6, BSA for calibration; CrtJ alone and CrtJ with added AerR; details: both partners purified
[3] = biological target: the molecule itself; test: as above

Molecule: bchC promoter EMSA probe, 325 bp
binding signal (fold higher affinity than CrtJ alone) [1]: 6

stoichiometry N [2]: 0.5 AerR per CrtJ chain (1:2)
B1: AerR (natural protein)
chain: MNGVAELQTVLVNRMVELATGPELGAMDLLFDEFRAAHVPVEEMATHYIPEAARQIGAAWDSDRIGFAQVTIAISRLQELLHALQTLVTADSVGCANGATVLLIVPPGEQHTLGALIVAMELRRRGVSVRIVFAPGLSDLSRLMATTRFDAALITVGSMDRVEICAKLVKTLSSLTKGRMRVAIGGAIVSQRAEALARTGADLVTNDLSLVISEFSLV

Molecule: B2
stoichiometry N [3]: 2
